This note sets out measurements from paper PMC13108567, “Targeting PD-1^+ T cells with chimeric antigen receptors to reduce the HIV reservoir” (Science Advances, 2026).

The target in this assay is T1, PD-1 biotinylated dimer (Homo sapiens, UniProt Q15116).
T1 construct: also called PD-1 dimer protein
The assay is described as follows: BLI. The settings on record: both partners purified.

T1 sequence (Q15116 25-288): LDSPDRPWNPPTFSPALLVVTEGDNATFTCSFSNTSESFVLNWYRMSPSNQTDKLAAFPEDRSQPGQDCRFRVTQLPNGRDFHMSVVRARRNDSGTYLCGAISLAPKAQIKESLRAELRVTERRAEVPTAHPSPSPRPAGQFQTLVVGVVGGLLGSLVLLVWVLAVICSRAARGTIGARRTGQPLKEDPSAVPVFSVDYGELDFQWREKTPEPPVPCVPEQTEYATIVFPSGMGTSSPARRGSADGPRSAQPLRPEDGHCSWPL

B1: scFv-His of anti-PD-1 clone 135c139d6 (scFv, V domains shown)
VH: EVQLVQSGAEVKKPGESLKISCKGSGYSFTNFYIHWVRQAPGQRLEWMGSIYPNYGDTAYNQKFKDRFVFSLDTSVSTAYLQISSLKAEDTAVYYCARGYSYAMDYWGQGTTVTVSS
VL: DIQMTQSPSSVSASVGDRVTITCSASQGISGDLNWYQQKPGKAPKLLIYHTSSLHSGVPSRFSGSGSGTDFTLTISSLQPEDFATYYCQYYSKDLLTFGGGTKLEIK
notes: source: purified
Take B1: the “KD, fold lower than that of the scFv of clone A35” value was 4 times.
